Assay results published in US20190077860A1 (EISAI R AND D MANAGEMENT, published 2019).

T1: human EphA7 extracellular region-SEAP-His protein (human, UniProt Q15375 28-555)
T1 construct: extracellular domain; also called hEphA7-SEAP-His
T1 sequence (looked up): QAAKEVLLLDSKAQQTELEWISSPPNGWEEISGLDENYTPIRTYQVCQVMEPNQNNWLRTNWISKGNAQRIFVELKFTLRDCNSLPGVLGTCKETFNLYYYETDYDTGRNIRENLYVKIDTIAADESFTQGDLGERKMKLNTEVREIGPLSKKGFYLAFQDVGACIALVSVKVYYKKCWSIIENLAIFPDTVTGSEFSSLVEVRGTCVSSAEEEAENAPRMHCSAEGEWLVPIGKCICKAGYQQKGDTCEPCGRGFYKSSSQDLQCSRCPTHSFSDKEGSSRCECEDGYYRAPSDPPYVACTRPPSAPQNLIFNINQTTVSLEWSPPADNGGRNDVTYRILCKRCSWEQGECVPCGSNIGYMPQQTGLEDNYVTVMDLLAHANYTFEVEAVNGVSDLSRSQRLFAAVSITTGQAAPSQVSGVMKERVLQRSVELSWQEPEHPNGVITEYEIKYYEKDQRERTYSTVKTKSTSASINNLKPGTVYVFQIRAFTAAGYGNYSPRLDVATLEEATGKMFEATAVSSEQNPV

T2: human EphA8 extracellular region-SEAP-His protein (human, UniProt P29322 28-542)
T2 construct: extracellular domain; also called hEphA8-SEAP-His
T2 sequence (looked up): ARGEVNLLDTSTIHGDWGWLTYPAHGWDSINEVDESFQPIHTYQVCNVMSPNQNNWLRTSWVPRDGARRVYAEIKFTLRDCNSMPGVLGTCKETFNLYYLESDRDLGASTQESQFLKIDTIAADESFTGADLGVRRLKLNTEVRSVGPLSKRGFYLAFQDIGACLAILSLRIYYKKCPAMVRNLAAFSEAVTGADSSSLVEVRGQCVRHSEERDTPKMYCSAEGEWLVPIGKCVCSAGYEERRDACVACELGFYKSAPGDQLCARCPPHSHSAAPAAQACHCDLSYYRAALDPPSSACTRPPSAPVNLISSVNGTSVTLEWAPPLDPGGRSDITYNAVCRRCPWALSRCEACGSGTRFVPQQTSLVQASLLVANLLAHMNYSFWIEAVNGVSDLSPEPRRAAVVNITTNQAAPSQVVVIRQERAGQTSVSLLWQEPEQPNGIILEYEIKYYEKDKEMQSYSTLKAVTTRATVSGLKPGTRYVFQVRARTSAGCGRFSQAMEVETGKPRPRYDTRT

T3: human EphB4 extracellular region-SEAP-His protein (human, UniProt P54760 16-539)
T3 construct: extracellular domain; also called hEphB4-SEAP-His
T3 sequence (looked up): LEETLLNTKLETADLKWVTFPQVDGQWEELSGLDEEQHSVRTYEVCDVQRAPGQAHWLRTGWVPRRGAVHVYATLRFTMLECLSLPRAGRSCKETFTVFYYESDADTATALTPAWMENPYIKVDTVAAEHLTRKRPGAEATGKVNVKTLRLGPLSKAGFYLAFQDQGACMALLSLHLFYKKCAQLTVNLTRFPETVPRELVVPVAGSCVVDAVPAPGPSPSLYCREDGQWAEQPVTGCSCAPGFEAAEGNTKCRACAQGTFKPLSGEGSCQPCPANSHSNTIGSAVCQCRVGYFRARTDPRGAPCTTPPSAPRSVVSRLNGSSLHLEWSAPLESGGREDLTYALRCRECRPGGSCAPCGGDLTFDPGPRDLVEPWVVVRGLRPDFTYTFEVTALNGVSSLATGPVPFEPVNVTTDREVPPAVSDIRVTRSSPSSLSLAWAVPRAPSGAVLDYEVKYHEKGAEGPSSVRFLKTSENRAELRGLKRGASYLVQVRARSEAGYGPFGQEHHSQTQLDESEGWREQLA

T4: human EphB6 extracellular region-SEAP-His protein (human, UniProt O15197 32-594)
T4 construct: extracellular domain; also called hEphB6-SEAP-His
T4 sequence (looked up): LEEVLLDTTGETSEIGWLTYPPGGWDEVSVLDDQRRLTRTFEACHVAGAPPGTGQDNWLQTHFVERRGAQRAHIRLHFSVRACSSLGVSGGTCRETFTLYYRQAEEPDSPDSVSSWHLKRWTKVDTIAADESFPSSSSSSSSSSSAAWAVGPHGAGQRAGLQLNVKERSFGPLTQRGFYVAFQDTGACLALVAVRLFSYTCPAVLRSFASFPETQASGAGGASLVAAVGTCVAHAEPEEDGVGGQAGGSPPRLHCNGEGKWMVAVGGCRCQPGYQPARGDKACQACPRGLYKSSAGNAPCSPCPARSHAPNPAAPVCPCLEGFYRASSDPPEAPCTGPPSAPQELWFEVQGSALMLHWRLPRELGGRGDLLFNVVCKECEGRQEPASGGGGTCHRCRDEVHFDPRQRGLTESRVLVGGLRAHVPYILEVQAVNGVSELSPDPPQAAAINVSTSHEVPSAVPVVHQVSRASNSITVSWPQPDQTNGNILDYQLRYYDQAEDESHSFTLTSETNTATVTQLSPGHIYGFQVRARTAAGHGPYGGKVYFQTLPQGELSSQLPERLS


How the values were obtained:
Assay in all cases: ELISA
[1] = target: T5, human EphA2 extracellular region-SEAP-His protein (human, UniProt P29317 24-537)
T5 construct: extracellular domain; also called hEphA2-SEAP-His

[2] = target: T6, human EphA5 extracellular region-SEAP-His protein (human, UniProt P54756 25-573)
T6 construct: extracellular domain; also called hEphA5-SEAP-His

[3] = target: T1, human EphA7 extracellular …
[4] = target: T2, human EphA8 extracellular …
[5] = target: T3, human EphB4 extracellular …
[6] = target: T4, human EphB6 extracellular …

T5 sequence (P29317 24-537): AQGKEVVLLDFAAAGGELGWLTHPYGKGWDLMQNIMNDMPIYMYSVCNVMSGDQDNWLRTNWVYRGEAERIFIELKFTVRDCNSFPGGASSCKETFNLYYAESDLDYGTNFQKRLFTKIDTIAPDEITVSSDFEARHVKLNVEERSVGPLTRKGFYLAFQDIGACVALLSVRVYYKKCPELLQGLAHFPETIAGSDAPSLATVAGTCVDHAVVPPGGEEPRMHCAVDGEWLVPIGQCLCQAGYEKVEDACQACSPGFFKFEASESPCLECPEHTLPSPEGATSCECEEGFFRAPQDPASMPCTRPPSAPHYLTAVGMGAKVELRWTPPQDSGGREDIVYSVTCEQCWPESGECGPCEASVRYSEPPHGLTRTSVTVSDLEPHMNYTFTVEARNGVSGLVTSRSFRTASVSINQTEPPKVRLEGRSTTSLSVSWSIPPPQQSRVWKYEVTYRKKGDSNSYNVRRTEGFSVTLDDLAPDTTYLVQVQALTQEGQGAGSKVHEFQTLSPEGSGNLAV
T6 sequence (P54756 25-573): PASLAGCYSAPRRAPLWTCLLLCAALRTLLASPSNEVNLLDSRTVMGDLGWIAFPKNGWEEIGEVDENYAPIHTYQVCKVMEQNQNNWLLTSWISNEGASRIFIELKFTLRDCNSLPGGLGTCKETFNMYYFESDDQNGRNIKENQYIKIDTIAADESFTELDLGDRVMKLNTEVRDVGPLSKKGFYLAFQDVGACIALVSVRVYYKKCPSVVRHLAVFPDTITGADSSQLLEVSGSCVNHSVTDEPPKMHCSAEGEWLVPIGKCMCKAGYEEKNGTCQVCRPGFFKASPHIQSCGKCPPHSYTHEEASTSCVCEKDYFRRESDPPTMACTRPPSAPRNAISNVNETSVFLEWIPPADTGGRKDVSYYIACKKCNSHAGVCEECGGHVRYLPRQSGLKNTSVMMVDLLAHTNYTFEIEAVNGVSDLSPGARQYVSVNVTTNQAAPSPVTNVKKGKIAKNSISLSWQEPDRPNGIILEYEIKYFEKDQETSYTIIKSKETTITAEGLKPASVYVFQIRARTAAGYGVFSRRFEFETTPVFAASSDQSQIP

A450 as % of hEphA4-SEAP-His [1] [%]	A450 as % of hEphA4-SEAP-His [2] [%]	A450 as % of hEphA4-SEAP-His [3] [%]	A450 as % of hEphA4-SEAP-His [4] [%]	A450 as % of hEphA4-SEAP-His [5] [%]	A450 as % of hEphA4-SEAP-His [6] [%]	Binder
5	4.9	4.9	5	5	4.9	humanized antibody No. 93 (antibody, human IgG1, kappa, human Ig kappa; also called L2-4/HA1) heavy: QVQLVQSGSELKKPGASVKVSCKASGYTFTDYSMHWVRQAPGQGLEWMGWINTETGEPTYAQGFTGRFVFSLDTSVSTAYLQISSLKAEDTAVYYCARIPLYYYGSRYWYFDVWGQGTTVTVSSASTKGPSVFPLAPSSKSTSGGTAALGCLVKDYFPEPVTVSWNSGALTSGVHTFPAVLQSSGLYSLSSVVTVPSSSLGTQTYICNVNHKPSNTKVDKRVEPKSCDKTHTCPPCPAPPAAAPSVFLFPPKPKDTLMISRTPEVTCVVVDVSHEDPEVQFNWYVDGVEVHNAKTKPREEQFNSTFRVVSVLTVVHQDWLNGKEYKCKVSNKGLPAPIEKTISKTKGQPREPQVYTLPPSREEMTKNQVSLTCLVKGFYPSDIAVEWESNGQPENNYKTTPPMLDSDGSFFLYSKLTVDKSRWQQGNVFSCSVMHEALHNHYTQKSLSLSPG light: EIVMTQSPATLSVSPGERATLSCRASENIYRNLAWYQQKPGQSPRLLIYAATNLADGIPARFSGSGSGTEYTLTISSLQSEDFAVYYCQHFWGTPWTFGQGTKVEIKRTVAAPSVFIFPPSDEQLKSGTASVVCLLNNFYPREAKVQWKVDNALQSGNSQESVTEQDSKDSTYSLSSTLTLSKADYEKHKVYACEVTHQGLSSPVTKSFNRGEC
4.2	4.6	4.4	4.4	4.6	4.7	humanized antibody No. 95 (antibody, human IgG1, kappa, human Ig kappa; also called L2-4/HK1) heavy: QVQLVQSGSELKKPGASVKVSCKASGYTFTDYSMHWVRQAPGQGLEWMGWINTETGEPTYADDFKGRFVFSLDTSVSTAYLQISSLKAEDTAVYYCARIPLYYYGSRYWYFDVWGQGTTVTVSSASTKGPSVFPLAPSSKSTSGGTAALGCLVKDYFPEPVTVSWNSGALTSGVHTFPAVLQSSGLYSLSSVVTVPSSSLGTQTYICNVNHKPSNTKVDKRVEPKSCDKTHTCPPCPAPPAAAPSVFLFPPKPKDTLMISRTPEVTCVVVDVSHEDPEVQFNWYVDGVEVHNAKTKPREEQFNSTFRVVSVLTVVHQDWLNGKEYKCKVSNKGLPAPIEKTISKTKGQPREPQVYTLPPSREEMTKNQVSLTCLVKGFYPSDIAVEWESNGQPENNYKTTPPMLDSDGSFFLYSKLTVDKSRWQQGNVFSCSVMHEALHNHYTQKSLSLSPG light: EIVMTQSPATLSVSPGERATLSCRASENIYRNLAWYQQKPGQSPRLLIYAATNLADGIPARFSGSGSGTEYTLTISSLQSEDFAVYYCQHFWGTPWTFGQGTKVEIKRTVAAPSVFIFPPSDEQLKSGTASVVCLLNNFYPREAKVQWKVDNALQSGNSQESVTEQDSKDSTYSLSSTLTLSKADYEKHKVYACEVTHQGLSSPVTKSFNRGEC
5.3	6	5.3	5.4	5.5	5.5	humanized antibody No. 96 (antibody, human IgG1, kappa, human Ig kappa; also called L2-4/HK2) heavy: QVQLVQSGSELKKPGASVKVSCKASGYTFTDYSMHWVRQAPGQGLKWMGWINTETGEPTYADDFKGRFVFSLDTSVSTAYLQISSLKAEDTAVYYCARIPLYYYGSRYWYFDVWGQGTTVTVSSASTKGPSVFPLAPSSKSTSGGTAALGCLVKDYFPEPVTVSWNSGALTSGVHTFPAVLQSSGLYSLSSVVTVPSSSLGTQTYICNVNHKPSNTKVDKRVEPKSCDKTHTCPPCPAPPAAAPSVFLFPPKPKDTLMISRTPEVTCVVVDVSHEDPEVQFNWYVDGVEVHNAKTKPREEQFNSTFRVVSVLTVVHQDWLNGKEYKCKVSNKGLPAPIEKTISKTKGQPREPQVYTLPPSREEMTKNQVSLTCLVKGFYPSDIAVEWESNGQPENNYKTTPPMLDSDGSFFLYSKLTVDKSRWQQGNVFSCSVMHEALHNHYTQKSLSLSPG light: EIVMTQSPATLSVSPGERATLSCRASENIYRNLAWYQQKPGQSPRLLIYAATNLADGIPARFSGSGSGTEYTLTISSLQSEDFAVYYCQHFWGTPWTFGQGTKVEIKRTVAAPSVFIFPPSDEQLKSGTASVVCLLNNFYPREAKVQWKVDNALQSGNSQESVTEQDSKDSTYSLSSTLTLSKADYEKHKVYACEVTHQGLSSPVTKSFNRGEC
